The results in this text go back to article PMC5839066.

For this assay, the target named is RFP-p62 (UniProt Q13501). As to the kind of experiment: co-IP; COS-7 cells cotransfected with HTT fragment and RFP-p62, 100 nM bafilomycin for 4 h; lysates in SDP buffer; p62 immunoprecipitated (anti-p62 MBL PM045) overnight at 4 °C; co-precipitated HTT blotted and normalised to input.

Substance “HTT aa1-1212 138Q-C6R (domain or fragment)” displayed a fold binding relative to cleavable mHTT of 2 fold.
